Measurements: PMC9838835 (PLOS ONE, 2023)

Target: the molecule itself
Assay: native gel or EMSA

B1: Human butyrylcholinesterase (enzyme, UniProt P06276 29-602, looked up)
chain: EDDIIIATKNGKVRGMNLTVFGGTVTAFLGIPYAQPPLGRLRFKKPQSLTKWSDIWNATKYANSCCQNIDQSFPGFHGSEMWNPNTDLSEDCLYLNVWIPAPKPKNATVLIWIYGGGFQTGTSSLHVYDGKFLARVERVIVVSMNYRVGALGFLALPGNPEAPGNMGLFDQQLALQWVQKNIAAFGGNPKSVTLFGESAGAASVSLHLLSPGSHSLFTRAILQSGSFNAPWAVTSLYEARNRTLNLAKLTGCSRENETEIIKCLRNKDPQEILLNEAFVVPYGTPLSVNFGPTVDGDFLTDMPDILLELGQFKKTQILVGVNKDEGTAFLVYGAPGFSKDNNSIITRKEFQEGLKIFFPGVSEFGKESILFHYTDWVDDQRPENYREALGDVVGDYNFICPALEFTKKFSEWGNNAFFYYFEHRSSKLPWPEWMGVMHGYEIEFVFGLPLERRDNYTKAEEILSRSIVKRWANFAKYGNPNETQNNSTSWPVFKSTEQKYLTLNTESTRIMTKLRAQQCRFWTSFFPKVLEMTGNIDEAEWEWKAGFHRWNNYMMDWKNQFNDYTSKKESCVGL
notes: also called BChE; C4 (tetramer)
In the case of B1, the “stoichiometry N” value is reported as 4.
